Measured values as given in patent publication US6428579B1, “Implantable prosthetic devices coated with bioactive molecules” (Brown University Research Foundation, priority 1999, dated 2002).

Assay: Surface plasmon resonance of peptide adsorption on gold
Assay type: physicochemical
Settings: best fit of SPR spectra, Fresnel theory
Description: Surface plasmon resonance (SPR) was produced when a beam of p-polarized laser light impinges onto the surface of a thin metal film. The light was coupled to the metal film through a prism which was mounted on a rotating turntable. At a particular angle of incidence the E-field of the laser light interacts with the surface bound free electrons of the metal film in such a way that a charge density wave was generated at the interface of the metal and air. This excitation results in a sharp reduction in the magnitude of the reflected light (measured with a photodiode). The angle at which this occurs together with the depth and half-width of the minimum were determined by the thickness and complex refractive index of the metal film. The magnitude of the evanescent field which arises from the charge density wave decays exponentially in the direction normal to the surface. […] By fitting the Fresnel equations, firstly to the date for the uncoated metal film, and then to the metal plus thin film, the thicknesses and complex refractive indices of the metal and peptide overlayer were determined. […] Another practical advantage of this method is that peptide chemistry can be determined in aqueous environments rather than the ultrahigh vacuums needed for other surface-sensitive techniques (e.g. ESCA). […]

Arg-Gly-Asp-Cys (RGDC; printed: Arg-Gly-Asp-Cys) [fibronectin related peptide, cysteine terminated]
Film thickness of peptide layer: 23-25 Å
